These results are taken from US20250002945, “NEW TALE PROTEIN SCAFFOLDS WITH IMPROVED ON-TARGET/OFF-TARGET ACTIVITY RATIOS” (CELLECTIS SA, published 2025).

Common to all, as to experiment: cell_activity; T cells, mostly above 70%
Common to all, as to settings: tags: SV40 NLS; FokI fusion

One series deals with T1, CISH (1) right V2 TALEN (synthetic, UniProt Q56830 SEQ:15-719).
T1 chain: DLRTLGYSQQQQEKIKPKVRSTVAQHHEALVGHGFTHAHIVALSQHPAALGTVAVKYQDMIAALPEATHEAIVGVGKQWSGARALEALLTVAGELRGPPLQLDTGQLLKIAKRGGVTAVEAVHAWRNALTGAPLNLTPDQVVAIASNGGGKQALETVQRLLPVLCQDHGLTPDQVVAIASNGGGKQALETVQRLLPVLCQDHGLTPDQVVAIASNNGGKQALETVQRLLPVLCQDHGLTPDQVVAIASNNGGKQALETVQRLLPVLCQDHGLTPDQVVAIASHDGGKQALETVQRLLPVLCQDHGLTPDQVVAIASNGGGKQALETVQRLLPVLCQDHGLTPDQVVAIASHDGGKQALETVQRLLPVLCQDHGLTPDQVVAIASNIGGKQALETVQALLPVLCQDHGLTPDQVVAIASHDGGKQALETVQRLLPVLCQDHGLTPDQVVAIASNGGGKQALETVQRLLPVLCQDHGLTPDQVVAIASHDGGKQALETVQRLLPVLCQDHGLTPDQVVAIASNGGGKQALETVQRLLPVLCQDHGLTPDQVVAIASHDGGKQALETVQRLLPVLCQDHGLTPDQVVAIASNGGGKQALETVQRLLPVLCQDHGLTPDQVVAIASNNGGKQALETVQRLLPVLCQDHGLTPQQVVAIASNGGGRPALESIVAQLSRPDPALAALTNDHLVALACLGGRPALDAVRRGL

The target of the next series is T2, CISH (2) left V2 TALEN (synthetic, UniProt Q56830 SEQ:15-719).
T2 chain: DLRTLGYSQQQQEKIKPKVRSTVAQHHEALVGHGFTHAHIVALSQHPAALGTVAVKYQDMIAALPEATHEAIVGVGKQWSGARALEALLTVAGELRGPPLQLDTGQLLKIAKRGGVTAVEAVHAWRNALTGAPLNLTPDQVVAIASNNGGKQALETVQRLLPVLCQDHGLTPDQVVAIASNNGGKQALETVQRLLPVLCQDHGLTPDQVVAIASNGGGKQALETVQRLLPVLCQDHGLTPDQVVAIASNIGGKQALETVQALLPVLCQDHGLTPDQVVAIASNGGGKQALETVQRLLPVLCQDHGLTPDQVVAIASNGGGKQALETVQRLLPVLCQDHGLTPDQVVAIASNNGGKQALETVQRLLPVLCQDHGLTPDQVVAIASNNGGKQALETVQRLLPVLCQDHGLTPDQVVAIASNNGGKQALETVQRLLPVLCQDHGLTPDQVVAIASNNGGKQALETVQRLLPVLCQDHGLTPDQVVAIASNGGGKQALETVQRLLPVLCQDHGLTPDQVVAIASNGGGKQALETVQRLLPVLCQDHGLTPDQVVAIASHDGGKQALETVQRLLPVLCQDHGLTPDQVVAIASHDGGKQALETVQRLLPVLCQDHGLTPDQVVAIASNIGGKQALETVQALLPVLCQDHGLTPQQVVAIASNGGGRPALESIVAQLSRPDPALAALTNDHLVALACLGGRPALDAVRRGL

For a further series, the target named is T3, CISH (3) left V2 TALEN (synthetic, UniProt Q56830 SEQ:15-719).
T3 chain: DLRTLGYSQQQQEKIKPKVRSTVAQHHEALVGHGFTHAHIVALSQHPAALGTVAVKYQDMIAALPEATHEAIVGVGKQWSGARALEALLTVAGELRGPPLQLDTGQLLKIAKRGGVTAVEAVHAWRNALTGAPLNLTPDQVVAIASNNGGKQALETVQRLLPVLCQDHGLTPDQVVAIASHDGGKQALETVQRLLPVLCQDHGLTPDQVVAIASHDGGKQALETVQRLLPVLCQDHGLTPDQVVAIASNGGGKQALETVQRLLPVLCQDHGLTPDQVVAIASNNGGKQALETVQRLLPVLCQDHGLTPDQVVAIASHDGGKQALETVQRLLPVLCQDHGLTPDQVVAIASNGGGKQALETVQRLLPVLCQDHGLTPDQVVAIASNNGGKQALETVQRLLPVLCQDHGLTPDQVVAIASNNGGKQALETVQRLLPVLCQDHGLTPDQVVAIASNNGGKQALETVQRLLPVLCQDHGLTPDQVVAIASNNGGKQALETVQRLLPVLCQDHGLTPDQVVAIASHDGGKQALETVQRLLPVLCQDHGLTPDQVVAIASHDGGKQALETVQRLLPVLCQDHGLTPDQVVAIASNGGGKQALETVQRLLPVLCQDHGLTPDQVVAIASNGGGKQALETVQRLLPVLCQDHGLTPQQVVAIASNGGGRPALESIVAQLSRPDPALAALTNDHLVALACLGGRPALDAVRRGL

The next series has as its target T4, CISH (2) right V2 TALEN (synthetic, UniProt Q56830 SEQ:15-719).
T4 chain: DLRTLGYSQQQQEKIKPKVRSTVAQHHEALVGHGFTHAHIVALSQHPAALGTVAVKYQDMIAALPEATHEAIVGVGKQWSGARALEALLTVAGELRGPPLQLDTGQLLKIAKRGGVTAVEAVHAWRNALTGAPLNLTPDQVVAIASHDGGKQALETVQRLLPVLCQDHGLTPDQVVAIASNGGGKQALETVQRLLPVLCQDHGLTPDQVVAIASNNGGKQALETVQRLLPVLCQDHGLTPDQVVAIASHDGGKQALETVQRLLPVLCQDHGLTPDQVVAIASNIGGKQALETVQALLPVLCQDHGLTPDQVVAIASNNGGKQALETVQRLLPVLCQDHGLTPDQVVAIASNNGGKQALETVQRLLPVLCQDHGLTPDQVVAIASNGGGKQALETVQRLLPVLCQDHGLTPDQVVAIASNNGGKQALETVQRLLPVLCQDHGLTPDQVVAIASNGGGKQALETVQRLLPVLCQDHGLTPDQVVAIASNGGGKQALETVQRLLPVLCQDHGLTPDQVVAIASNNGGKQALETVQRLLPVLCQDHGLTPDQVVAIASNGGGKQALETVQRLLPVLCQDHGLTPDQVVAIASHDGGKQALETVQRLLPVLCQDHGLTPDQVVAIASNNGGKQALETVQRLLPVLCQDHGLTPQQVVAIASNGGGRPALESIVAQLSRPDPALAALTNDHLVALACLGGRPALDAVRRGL

The next series deals with T5, TIGIT right V2 TALEN (synthetic, UniProt Q56830 SEQ:15-719).
T5 chain: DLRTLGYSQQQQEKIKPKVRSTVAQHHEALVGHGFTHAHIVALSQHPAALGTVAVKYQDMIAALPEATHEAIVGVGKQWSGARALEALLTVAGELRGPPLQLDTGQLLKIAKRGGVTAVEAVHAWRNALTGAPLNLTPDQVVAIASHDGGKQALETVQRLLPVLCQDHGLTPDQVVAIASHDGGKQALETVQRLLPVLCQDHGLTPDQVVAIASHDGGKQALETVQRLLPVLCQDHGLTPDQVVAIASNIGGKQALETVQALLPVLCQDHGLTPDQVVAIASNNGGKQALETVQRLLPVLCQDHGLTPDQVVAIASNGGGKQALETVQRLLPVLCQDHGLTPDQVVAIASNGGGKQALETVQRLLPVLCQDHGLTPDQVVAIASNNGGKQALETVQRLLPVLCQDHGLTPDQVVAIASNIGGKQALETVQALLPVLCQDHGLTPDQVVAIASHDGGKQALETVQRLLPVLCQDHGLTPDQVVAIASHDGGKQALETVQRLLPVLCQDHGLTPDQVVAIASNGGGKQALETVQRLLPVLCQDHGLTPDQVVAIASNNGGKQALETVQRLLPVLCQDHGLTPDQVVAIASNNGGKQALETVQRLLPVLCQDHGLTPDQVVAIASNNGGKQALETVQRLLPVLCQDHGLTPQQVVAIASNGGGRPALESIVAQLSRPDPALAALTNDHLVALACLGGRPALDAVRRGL

Another series deals with T6, TIGIT left V2 TALEN (synthetic, UniProt Q56830 SEQ:15-719).
T6 chain: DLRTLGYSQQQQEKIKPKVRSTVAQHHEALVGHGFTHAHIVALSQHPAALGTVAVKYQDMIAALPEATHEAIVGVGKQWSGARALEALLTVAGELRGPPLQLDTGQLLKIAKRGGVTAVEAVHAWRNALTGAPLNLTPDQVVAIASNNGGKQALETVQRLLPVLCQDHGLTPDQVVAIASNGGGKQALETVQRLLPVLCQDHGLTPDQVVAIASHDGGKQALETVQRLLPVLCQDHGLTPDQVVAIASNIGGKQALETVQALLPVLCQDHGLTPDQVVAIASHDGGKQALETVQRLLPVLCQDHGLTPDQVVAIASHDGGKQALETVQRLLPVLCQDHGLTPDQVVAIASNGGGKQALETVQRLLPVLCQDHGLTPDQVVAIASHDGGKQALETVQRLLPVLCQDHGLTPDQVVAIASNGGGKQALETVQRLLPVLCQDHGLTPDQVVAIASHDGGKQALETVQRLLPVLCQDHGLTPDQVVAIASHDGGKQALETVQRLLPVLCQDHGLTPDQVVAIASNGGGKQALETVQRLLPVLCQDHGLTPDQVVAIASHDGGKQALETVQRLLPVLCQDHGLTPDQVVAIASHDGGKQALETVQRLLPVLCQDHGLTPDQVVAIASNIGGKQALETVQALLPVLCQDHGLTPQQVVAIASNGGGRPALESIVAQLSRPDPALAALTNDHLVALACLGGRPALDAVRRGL

The next series concerns the target T7, CISH (1) left V2 TALEN (synthetic, UniProt Q56830 SEQ:15-719).
T7 chain: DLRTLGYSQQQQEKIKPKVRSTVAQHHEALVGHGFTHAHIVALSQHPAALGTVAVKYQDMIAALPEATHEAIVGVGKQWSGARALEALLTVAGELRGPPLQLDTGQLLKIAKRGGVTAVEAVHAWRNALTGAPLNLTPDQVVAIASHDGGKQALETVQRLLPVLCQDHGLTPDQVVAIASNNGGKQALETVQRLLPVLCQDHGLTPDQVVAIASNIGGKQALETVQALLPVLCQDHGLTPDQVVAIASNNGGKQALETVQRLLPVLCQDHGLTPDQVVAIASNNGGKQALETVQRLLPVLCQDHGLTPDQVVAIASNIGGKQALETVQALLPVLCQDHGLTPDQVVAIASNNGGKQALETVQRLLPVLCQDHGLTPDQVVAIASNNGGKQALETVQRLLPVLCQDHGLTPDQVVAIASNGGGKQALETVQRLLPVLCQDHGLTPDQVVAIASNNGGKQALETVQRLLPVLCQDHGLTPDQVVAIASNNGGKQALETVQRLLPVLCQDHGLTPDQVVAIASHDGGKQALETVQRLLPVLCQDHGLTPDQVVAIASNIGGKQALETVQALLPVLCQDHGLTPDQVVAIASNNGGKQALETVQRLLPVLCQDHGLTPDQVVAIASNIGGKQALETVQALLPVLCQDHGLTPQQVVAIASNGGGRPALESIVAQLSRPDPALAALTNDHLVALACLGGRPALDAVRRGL

Bounds are passed on as bounds.

B1: CISH (1) right half-site (dsDNA)
DNA 1: ACAGAGAGTGAGCCAAA
DNA 2: TTTGGCTCACTCTCTGT
Molecule B1 returned an activity with CISH (1) right V2 TALEN of over 50 % indels.

B2: CISH (2) left half-site (dsDNA)
DNA 1: TGGTATTGGGGTTCCAT
DNA 2: ATGGAACCCCAATACCA
In the series with CISH (2) left V2 TALEN, B2 registered an activity of over 50 % indels.

B3: CISH (3) left half-site (dsDNA)
DNA 1: TGCCTGCTGGGGCCTTC
DNA 2: GAAGGCCCCAGCAGGCA
In the series with CISH (3) left V2 TALEN, B3 had an activity of over 50 % indels.

B4: CISH (2) right half-site (dsDNA)
DNA 1: CCGACAACACCTGCAGA
DNA 2: TCTGCAGGTGTTGTCGG
In the case of B4, in the series with CISH (2) right V2 TALEN, the activity is over 50 % indels.

B5: TIGIT right half-site (dsDNA)
DNA 1: ACCCAGGTCAACTGGGA
DNA 2: TCCCAGTTGACCTGGGT
Turning to B5, the activity with TIGIT right V2 TALEN is over 50 % indels.

B6: TIGIT left half-site (dsDNA)
DNA 1: TGTCACCTCTCCTCCAC
DNA 2: GTGGAGGAGAGGTGACA
B6: the activity with TIGIT left V2 TALEN is over 50 % indels.

B7: CISH (1) left half-site (dsDNA)
DNA 1: TCGAGGAGGTGGCAGAG
DNA 2: CTCTGCCACCTCCTCGA
In turn, B7 had an activity with CISH (1) left V2 TALEN of over 50 % indels.
